{
  "source": "patent US6783936",
  "biological_target": "one CLL cell line",
  "assay": "avidity constant derived from LD50 of complement dependent cytotoxicity on CLL cells",
  "data": [
    {"substance": "Lym-1 antibody", "values": [
      {"measurement": "avidity", "value": "1.1e+08"}
    ]}
  ]
}
